Assay results from publication PMC3585124, “The Interaction of CtIP and Nbs1 Connects CDK and ATM to Regulate HR–Mediated Double-Strand Break Repair” (PLoS Genetics, 2013).

Experiments:
Nbs1 1-335 = Nbs1 1-335 (UniProt O60934); experiment: co-expression, GST pull-down, anti-Flag blot; conditions: reference: wild-type 200-600 fragment
BRCA1 = BRCA1 (UniProt P38398); experiment: co-immunoprecipitation, HA-CtIP and Myc-BRCA1; conditions: reference: wild type; sites S327
[1] = molecular target: T1, GST-CtIP-His (purified CtIP-WT) (human, UniProt Q99708 1-897, phosphorylated by CDKs when expressed in insect cells (sites in Table S2)); experiment: pull-down; purified Nbs1(1–335) or Nbs1(1–335)-RRHK incubated with purified CtIP-WT or CtIP-12A-CDK coupled to glutathione agarose beads; Western blot with anti-His and anti-GST; conditions: both partners purified
T1 construct: CtIP, human; also called GST-CtIP WT
T1 sequence (Q99708 whole entry): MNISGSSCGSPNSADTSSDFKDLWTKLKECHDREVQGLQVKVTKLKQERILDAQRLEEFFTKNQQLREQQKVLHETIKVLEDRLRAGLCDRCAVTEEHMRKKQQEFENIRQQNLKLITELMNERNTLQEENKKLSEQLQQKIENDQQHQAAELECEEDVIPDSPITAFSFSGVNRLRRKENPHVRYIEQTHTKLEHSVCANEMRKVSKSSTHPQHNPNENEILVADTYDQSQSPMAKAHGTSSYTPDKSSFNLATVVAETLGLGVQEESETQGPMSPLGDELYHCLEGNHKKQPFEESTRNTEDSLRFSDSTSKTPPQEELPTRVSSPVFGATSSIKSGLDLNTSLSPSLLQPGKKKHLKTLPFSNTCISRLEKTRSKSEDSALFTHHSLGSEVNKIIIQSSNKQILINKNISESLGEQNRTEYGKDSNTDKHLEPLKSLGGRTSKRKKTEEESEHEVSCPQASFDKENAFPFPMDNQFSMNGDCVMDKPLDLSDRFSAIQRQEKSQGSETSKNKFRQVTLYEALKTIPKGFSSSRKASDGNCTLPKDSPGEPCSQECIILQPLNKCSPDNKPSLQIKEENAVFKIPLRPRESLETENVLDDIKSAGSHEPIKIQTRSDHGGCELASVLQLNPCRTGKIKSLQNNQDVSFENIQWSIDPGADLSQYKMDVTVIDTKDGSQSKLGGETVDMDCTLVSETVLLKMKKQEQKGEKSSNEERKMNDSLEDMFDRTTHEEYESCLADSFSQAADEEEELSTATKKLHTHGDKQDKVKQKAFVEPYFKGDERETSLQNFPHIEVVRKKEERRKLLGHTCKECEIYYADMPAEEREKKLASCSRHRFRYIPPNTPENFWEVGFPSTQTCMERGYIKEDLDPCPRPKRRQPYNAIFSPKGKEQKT

## CtIP 200-600 (from UniProt Q99708) 5A-CDK
Nbs1 1-335; sites S233,T245,S276,T315,S347
  binding against the reference: lost

## CtIP 200-600 (from UniProt Q99708) S233A/T245A/S276A (printed S233A/S245A/S276A)
Nbs1 1-335; sites S233,T245,S276
  binding against the reference: weaker

## CtIP 200-600 (from UniProt Q99708) T245A/S276A/S347A
Nbs1 1-335; sites T245,S276,S347
  binding against the reference: weaker

## CtIP 200-600 (from UniProt Q99708) T315A/S347A
Nbs1 1-335; sites T315,S347
  binding against the reference: weaker

## CtIP (from UniProt Q99708) S327A
BRCA1
  binding against the reference: weaker

B1: Purified Nbs1(1–335) (domain or fragment, human, UniProt O60934 1-335, looked up)
chain: MWKLLPAAGPAGGEPYRLLTGVEYVVGRKNCAILIENDQSISRNHAVLTANFSVTNLSQTDEIPVLTLKDNSKYGTFVNEEKMQNGFSRTLKSGDGITFGVFGSKFRIEYEPLVACSSCLDVSGKTALNQAILQLGGFTVNNWTEECTHLVMVSVKVTIKTICALICGRPIVKPEYFTEFLKAVESKKQPPQIESFYPPLDEPSIGSKNVDLSGRQERKQIFKGKTFIFLNAKQHKKLSSAVVFGGGEARLITEENEEEHNFFLAPGTCVVDTGITNSQTLIPDCQKKWIQSIMDMLQRQGLRPIPEAEIGLAVIFMTTKNYCDPQGHPSTGLKT
notes: also called Nbs1-WT-N; source: Sf9 insect cells, purified (Ni-NTA column followed by MonoQ column); not shown: His, C-terminal, kept
[1]
  binding result: binds
